The experiment deals with GATOR2 purified from HEK293T cells (UniProt Q9NXC5 1-875; Q6PJI9 1-974; Q96S15 1-790; Q96EE3 1-360; P55735 1-322). The experiment is described as follows: pull-down.

B1: GST-Sesn2 (natural protein, UniProt P58004 1-480, looked up)
chain: MIVADSECRAELKDYLRFAPGGVGDSGPGEEQRESRARRGPRGPSAFIPVEEVLREGAESLEQHLGLEALMSSGRVDNLAVVMGLHPDYFTSFWRLHYLLLHTDGPLASSWRHYIAIMAAARHQCSYLVGSHMAEFLQTGGDPEWLLGLHRAPEKLRKLSEINKLLAHRPWLITKEHIQALLKTGEHTWSLAELIQALVLLTHCHSLSSFVFGCGILPEGDADGSPAPQAPTPPSEQSSPPSRDPLNNSGGFESARDVEALMERMQQLQESLLRDEGTSQEEMESRFELEKSESLLVTPSADILEPSPHPDMLCFVEDPTFGYEDFTRRGAQAPPTFRAQDYTWEDHGYSLIQRLYPEGGQLLDEKFQAAYSLTYNTIAMHSGVDTSVLRRAIWNYIHCVFGIRYDDYDYGEVNQLLERNLKVYIKTVACYPEKTTRRMYNLFWRHFRHSEKVHVNLLLLEARMQAALLYALRAITRYMT
B1: the binding result is “binds”.

The values are drawn from paper PMC4303546 (Cell reports, 2014).
